This data set in a line: soluble on expression in E. coli; label from the status in PepcDB or PDB records.
Regarding “AVTFAVMVSDAPSLDESKLKTPYSSTIYDKNGKEIAEVGAEKRTYVSIDEIPDVVKEAFIATEDARFYEHHGIDPVRIGGALVANFKDGFGAEGGSTITQQVVKNSLLSHQKTLKRKVQEVWLSIQLERNYSKDEILEMYLNRIYFSPRAYGIGKAAEEFFGVTDLSKLTVEQAATLAGMPQSPTAYNPVKNPDKAEKRRNIVLSLMKKQGFISDSQYNKAKKVAVKDEGVVSQKEYEKASTNKYSAFVEEVMKEIDEKSDVDPSADGLKIYTTLDTKAQDKLDELMDGDTVGFTEGMQGGVTLLDTKNGEVRAIGAGRNQPVGGFNYATQTKAQPGSTIKPILDYGPVIENKKWSTYEQIDDSAYTYSNGKPIRDWDRKYLGPISMRYALAQSRNIPALKAFQAVGKDTAVDFANGLGLGLTKDNVTEAYSIGGFGGNDGVSPLTMAGAYSAFGNNGTYNEPHFVKSIEFNDGTKLDLTPKSKSAMSDYTAFMITDMLKTAVKTGTGQLAQVPGVEVAGKTGTTNFDDNEVKRYNIASGGARDSWFVGYTPQYTAAVWTGMGENEAGKKSLSAEEQKVAKRIFAQLIADVDDGSGSFEKPDSVVEATVEKGSNPAKLAGPNTPSDKKLTEYFVKGTAPSTVSKTYEKEEKEETAKLSGLNVKYDKDNQSLTLSWNYDGDATFAVKQSVDGGSYSEIQNSSAKEAVISGVQPGSVYKFEVTAVSDDGKSTASTSYEVPKAEDDEDKKDQQQTDDEKQDDEKTQDDTQTDDSQKDDGQTDQDQTDDSTNDQDKKQDNTNTNPSDNNNQDQSNDNDNDNSNNQDTSDGDSNSGKNDSTGSDTNKNKTDTSNKTQTNSSSIEKT”, the “soluble on expression in E. coli” value is on record as “not soluble”.
As to “MAHHHHHHMNQVIRSRTDWKERVVLRLAWITASRWSEIAALTPNNLKLKTDGTLILYWPVAPKTARTDPHRASRFVRIRGQDAFDIIKLCRTLQHIEKLTNLTTARVERALAPWNATAHSIRRGALRHAAQIVEAYNLNPHVISQLAKHVDPFDLPQNTVRYLGNCTTMLTQVLSLVALM”, the “soluble on expression in E. coli” value was “not soluble”.
For the sequence “IIGGNEVTPHSRPYMVLLSLDRKTICAGALIAKDWVLTAAHCNLNKRSQVILGAHSITREEPTKQIMLVKKEFPYPCYDPATREGDLKLLQLTEKAKINKYVTILHLPKKGDDVKPGTMCQVAGWGRTHNSASWSDTLREVNITIIDRKVCNDRNHYNFNPVIGMNMVCAGSLRGGRDSCNGDSGSPLLCEGVFRGVTSFGLENKCGDPRGPGVYILLSKKHLNWIIMTIKGAV”, the “soluble on expression in E. coli” value is “soluble”.
Consider “MKLHTLVSCLHDFPVVPKENPEITSIEADSRKVKEGSLFVCMKGYTVDSHDFAKQAAAQGAAAIVAERPIDVDVPVVLVKNTFRSLAVLADYFYGQPTHKLHLIGITGTNGKTTTSHIMDEIMRAHGHKTGLIGTINMKIGDETFEVKNTTPDALTLQQTFAKMVEHGVDSTVMEVSSHALDLGRVHGCDYDVAVFTNLTQDHLDYHKTMEEYKHAKGLLFAQLGNSYNHNREKYAVLNNDDAVTVEYMRSTAATVVTYGIDTTSDVMAKDIAMTSGGTTFTLVTPYESVNVTMKLIGKFNVYNVLAATAAGLVSGVSLETIIDVIKELAGVPGRFEVVDGGQNYTVIVDYAHTPDSLENVLKTAKQFAKGDVYCIVGCGGDRDRTKRPIMASVATQYATHAIYTSDNPRSEDPAAILDDMVHGANGNNYEVIIDRKEAIHHAITKAKADDIIIIAGKGHETYQIIGKDVHHFDDREVAKEAITERLNNEE”, for which the “soluble on expression in E. coli” value is recorded as “not soluble”.
With “GMQIESFKSLLPKYKCIFFDAFGVLKTYNGLLPGIENTFDYLKAQGQDYYIVTNDASRSPEQLADSYHKLGLFSITADKIISSGMITKEYIDLKVDGGIVAYLGTANSANYLVSDGIKMLPVSAIDDSNIGEVNALVLLDDEGFNWFHDLNKTVNLLRKRTIPAIVANTDNTYPLTKTDVAIAIGGVATMIESILGRRFIRFGKPDSQMFMFAYDMLRQKMEISKREILMVGDTLHTDILGGNKFGLDTALVLTGNTRIDDAETKIKSTGIVPTHICESAVIEL”, the “soluble on expression in E. coli” value is given as “soluble”.
As to “PEMKIVMTSTTEVMEEVLVVAYGTAKKSAFTGSAKMIHTEQITKRPVTNVIESLSGQVAGLQMTMTNGQPGETPSILIRGISSMSAKTDPLIVLDGMPYEGGWNNINPADVESISVLKDAASTALYGARGANGVIIITTKSAKAGD”, the “soluble on expression in E. coli” value is on record as “not soluble”.
Regarding “MKSHERGRVILVIDDTDCGRVAAERLVFMARAGFRGDVFVVFGKDIEISPIASYEKEMKIYTSLRVKASKFVEFYRERLEEAGLEVKQVKIILGNVSEEVLRLEKLLNPDLIVFGMEKRGFLKRLLRGDPYKEIIYETKAPVMVCKAGYERKDVDYEKIRCAKCVMG”, the “soluble on expression in E. coli” value is on record as “not soluble”.
With “MAHHHHHHMGNKISTEDHIFRLKLKTKELEKLSQRSELEEKKLIGDVKKAIQAGKIELARLYAEKCIRKKNEKVNYLNLSNKLDVLVSRLEGAHRCASLVKDVGVMIPLIQKINAETNAIKIGNDVTKLENIFDEISISSELINDTVQTSSAISAPTEEVDELISKIADEHALKLDGQIGSVHPINKHLEEISNMSERIKNLK” the entry was “soluble”; with “MKAQIIHSFGDSSVFQLEEVSKPKLLPGHVLIDVKATSVNPIDTKMRSGAVSAVAPEFPAILHGDVAGIVIEVGEGVSKFKCGDEVYGCAGGFKETGGALAEFMLADARLIAHKPNNITMEEAAALPLVAITAWESLFDRANIKSGQNVLIHGATGGVGHVAIQLAKWAGANVFTTASQQNKMEIAHRLGADVAINYKEESVQESVQEYVQKHTNGNGFEVIFDTVGGKNLDNSFEAAAVNGTVVTIAARSTHDLSPLHAKGLSLHVTFMALKILHTDKRNDCGEILTKITKIVEEGKLRPLLDSKSFTFDEVAQAHEYLESNKAIGKIVLKNVW”, “soluble”; with “MNKLHKGWFTEFSPDDLEKMNGASDEEPTKVLKSDGQEMGGAWPGQAFSLQVKKVLFHEKSKYQDVLVFESTTYGNVLVLDGIVQATERDEFSYQEMLAHLPMFAHPDPKRVLIIGGGDGGILREVLKHESVEKVTMCEIDEMVIDVAKKFLPGMSCGFSHPKLDLFCGDGFEFLKNHKNEFDVIITDSSDPVGPAESLFGQSYYELLRDALKEDGILSSQGESVWLHLPLIAHLVAFNRKIFPAVTYAQSIVSTYPSGSMGYLICAKNANRDVTTPARTLTAEQIKALNLRFYNSEVHKAAFVLPQFVKNALE”, “soluble”.
For the sequence “MGSDKIHHHHHHMQQSKEERVHDVFEKISDKYDVMNSVISFQRHKAWRKETMRIMDVKPGSKALDVCCGTADWTIALAEAVGEQGKVVGLDFSENMLSVGKQKVEALQLKQVELLHGNAMELPFEDNTFDYVTIGFGLRNVPDYMHVLKEMTRVVKPGGKVICLETSQPTMIGFRQGYILYFKYIMPLFGKLFAKSYKEYSWLQESASTFPGMKELANMFEKAGLERVQVKPFTFGVAAMHLGMKPESK”, the “soluble on expression in E. coli” value is reported as “not soluble”.
For “MSLEYKVEDVSPVKKKVNVTVPVEEVDAALGAAIAMYRTSVNLDGFRKGKVPASIVENRFRKEIYAEATQDLVNVHINEIVTSLAVSPLSRIDFDGGELERGKEFSYTISFEVMPQFDLPDYEGFAVEQEKAVVDEKEVDEVIARIRRNMAELVPVAETRPGADGDVVVLDFAAFENGEPIEGVSAENFQLSLGEKQSLEDFENLVKTIPAGQEAEGPITFPDDFLNPDFAGKTVTMKVKVHAVKERRLPEIDDALAQKAGGFESMEKMRETVVTSYMQSREQLHKATAQKSMLDKLLKMVDFALPESMVDMYVGNLIEDMRVKMERQGRGLESLGKTPEQLREQVLPEAQQIARSQIFLLAAGRKEAVEVSEQEVDGQLQQLAMRSGQDFDTLKDYYVRNGLIFNLRDRLIADKAMDAIYAKANVTMVDPAPAEGHHHHHH”, the “soluble on expression in E. coli” value is listed as “soluble”.
Take “MGSDKIHHHHHHLRALGYQGRDVEVVALNDAQYLVAACDSCGAIGEKELDAVKVPWRVTGRMTARVALLEVLAVGAVPQMLSIAIANEPLPAGEEIMKGVREELKAMNLLSLPAAVSTEKNMPTEQTGLGITVIGLCDQDKLRIGRARPGNSLFCLGLPKVGTEAADPEDPDILQGIHLIQLLNIPGVYDIIPVGSQGIRGEAEALAQAVGARFGEDSQCRLDINKSAGPSTCLIFTAAEDIELGDFGKLPIHKIGRLEEDGGGGLLTENED”: the “soluble on expression in E. coli” value was “not soluble”.
The same measure for “MYGVLVIGAPGAGKSTFCAGLTDIFSQTKRPFLTINLDPANDTMAYAPDVNITEMITVNDVMDRLGLGPNGALKYCIETLGANCNWLLQKIEANHKKYLIIDCPGQLELYKSEGELWKVIRFLEKSGVRLCALHLADSLYCSDPSKFISVALSTLATMVTMEMPQVNCLSKADLFSEDGTYDLEFFSHLPDVNRLLDLLNEVPGLEKYRKLNEAICGVISDFDLVSFVPLAVENKESMMKVIQMVDAANGFSLTEQGDIRELILNSKA”: “not soluble”.
For “DIGCYTLGNAPPLELIDTCLCMGAGISIAGGISRTTKNSKNVAFIGDSTFFHSGIPAVINAVYNNADVTIAVLDNRTTAMTGHQPHPGTGKTALGKPTKLIDIEGILKSCGVEFVKTVSADDFSACKEISKEVIEYNGPSAVVFRGNCVSLVKSDKKYVIDK”, the “soluble on expression in E. coli” value is recorded as “not soluble”.
As to “MGSDKIHHHHHHMKLGFITSILDSWTYEEMMDFASGQGFECVEVACWPQEKAERRYAGVSHIDAERVNQDDAYAEHIVEYAKKSGVEISALAYYPNVMVADKEKSATAVEHLKQVILASKKLGVGMVTTFIGRDQTKNIQENLELVKEIWPPIIKLAEECDVKIAIENCPMLFGKEQWPGGQNLMTTPPIWREVFRILDSDHLGINYDPSHFIWQMIDYIRPLYEFKDKIFHVHYKDIKIYKDKLESCGIMAYPLEYMSPKIPGLGDVDWGKYVSALTDIGYDGYTCIEIEDKAFEDFKEKVENSLIISKRYLEQYVI”, the “soluble on expression in E. coli” value is on record as “not soluble”.
Consider “MSLETLRIANRMLGYAAYEWRLSSLDGQKVMSSSGICLEVDTCLADERRYVSGENRPEMAIICSGIDVDQHVNKSVNAWLREAYNRGIAIGSLCTAAHILAQAGLLNGKRCAIHWENLPGFSEAFPQVEVYADLFEVDSNIYTCAGGTASLDMMLSLIGQDFGENLVNRVCEQQLTDRVREGHHHHHH”, for which the “soluble on expression in E. coli” value was “not soluble”.
Regarding “MQDIRDLTAVLRSKTPIVVIETYEEYRVVDMLKRIANVLYQPLFTWSITQGLTRVDKPMPAQKFNTEPGDILGQIKATTQQGIYVLCDFHPFVVEAPKNVRLLKEIALEYDALQHTLVLVSHAFEIPPEIKRYCAYFQLTLPSTSQLENLIYLEVDKVRTQGIPLNVDDKAVVKLAENLRGVTLDDARRLIHKAIVDDGAITHSDVDLINKAKFQLLDLNGILQFEYDTSDFSQIAGLHNLKKWLKQRAPAAHSPQGVSAAAQIDTPKGVLLLGVQGSGKSLAAKAVAGVWQRPLLRLDMGALYNKYIGETEKNLRNALELADMMSPCILWIDEIEKGLSGSNSDQGISTRILGTLLTWMAERKSEVFVVATANDIQALPPELMRKGRMDEIFFVDLPDETIRKAIFLIHCQRRGIDVSRLDLAQLSRHSQGFSGAEIEQAVIAAMYSARSLGRTLDQDLLLEELTKTRPLSIVMGDKINALRQWAAGRTVNAHELEHHHHHH”, the “soluble on expression in E. coli” value was “soluble”.
